Experimental findings from ChEMBL document CHEMBL1151808, “Substrate promiscuity of the cyclic dipeptide prenyltransferases from Aspergillus fumigatus ( section sign)” (J Nat Prod, 2009) are described below.

Substrate in data set [1]: N[C@@H](Cc1c[nH]c2ccccc12)C(=O)O
As to the kind of experiment: (§1) Activity at Aspergillus fumigatus FtmPT1 by HPLC analysis.

Substrate in data set [2]: O=C1N[C@@H](Cc2c[nH]c3ccccc23)C(=O)N2CCC[C@@H]12
The data set is described as §1.

B1: Tryprostatin B synthase ftmPT1 (Aspergillus fumigatus), Q4WAW7 (protein)
chain: MPPAPPDQKPCHQLQPAPYRALSESILFGSVDEERWWHSTAPILSRLLISSNYDVDVQYKYLSLYRHLVLPALGPYPQRDPETGIIATQWRSGMVLTGLPIEFSNNVARALIRIGVDPVTADSGTAQDPFNTTRPKVYLETAARLLPGVDLTRFYEFETELVITKAEEAVLQANPDLFRSPWKSQILTAMDLQKSGTVLVKAYFYPQPKSAVTGRSTEDLLVNAIRKVDREGRFETQLANLQRYIERRRRGLHVPGVTADKPPATAADKAFDACSFFPHFLSTDLVEPGKSRVKFYASERHVNLQMVEDIWTFGGLRRDPDALRGLELLRHFWADIQMREGYYTMPRGFCELGKSSAGFEAPMMFHFHLDGSQSPFPDPQMYVCVFGMNSRKLVEGLTTFYRRVGWEEMASHYQGNFLANYPDEDFEKAAHLCAYVSFAYKNGGAYVTLYNHSFNPVGDVSFPN
By Km is commonly meant the concentration of substrate that gives half-maximal velocity. Usually kcat stands for the number of substrate molecules converted per active site and unit of time at saturation. As to B1, in data set [1], the Km was 820 µM and the kcat was determined as 0.12 s⁻¹. Besides, in data set [2], the Km came out at 55 µM and the kcat turned out to be 5.57 s⁻¹.
